Tested on: rabbit model of thromboembolic stroke
Assay: Rabbit model of thromboembolic stroke (clot embolization)
Type: in vivo
Settings: 16-HETE 1 mg/kg per minute for 1 h from 1 h after embolization; tPA 6.3 mg/kg at 3-5 h; FIG. 3
Experimental: New Zealand rabbits of either sex, weighing 3-4 kilograms were used for the study. Prior to the start of the experiment, the rabbits were divided into three groups, those that were administered both 16-HETE at a rate of 1 mg/kg per minute for one hour and tPA (Genentech, Inc., San Francisco, Calif.) at a concentration of 6.3 mg/kg, tPA alone, or vehicle.
On the day of treatment the animals were fasted for 12 hours with free access to water and then anesthetized with an intramuscular solution of ketamine (50 mg/kg), acepromazine (20 mg) and xylazine (5 mg/kg). This solution was subsequently used to maintain a surgical depth of anesthesia as determined by responses to various physiologic and autonomic stimuli, including mean arterial pressure and response to paw pinch.
The animals were prepared for surgery by introducing femoral venous and arterial catheters (PE50 and 90, respectively; Clay Adams, Parsippany, N.J.). The catheters were placed for subsequent blood sampling, including blood gas and arterial pressure, drug infusions, and fluid replacement.
All animals were tracheotomized and mechanically ventilated in order to maintain arterial blood gases within a physiologic range. Arterial blood gas measurements (pH, pCO2, pO2) were determined, using a Corning 168 blood gas monitor. […]

B1: tPA: tissue plasminogen activator, thrombolytic agent (Genentech, Inc.) (protein, UniProt P00750 36-562, looked up)
Tissue-type plasminogen …: SYQVICRDEKTQMIYQQHQSWLRPVLRSNRVEYCWCNSGRAQCHSVPVKSCSEPRCFNGGTCQQALYFSDFVCQCPEGFAGKCCEIDTRATCYEDQGISYRGTWSTAESGAECTNWNSSALAQKPYSGRRPDAIRLGLGNHNYCRNPDRDSKPWCYVFKAGKYSSEFCSTPACSEGNSDCYFGNGSAYRGTHSLTESGASCLPWNSMILIGKVYTAQNPSAQALGLGKHNYCRNPDGDAKPWCHVLKNRRLTWEYCDVPSCSTCGLRQYSQPQFRIKGGLFADIASHPWQAAIFAKHRRSPGERFLCGGILISSCWILSAAHCFQERFPPHHLTVILGRTYRVVPGEEEQKFEVEKYIVHKEFDDDTYDNDIALLQLKSDSSRCAQESSVVRTVCLPPADLQLPDWTECELSGYGKHEALSPFYSERLKEAHVRLYPSSRCTSQHLLNRTVTDNMLCAGDTRSGGPQANLHDACQGDSGGPLVCLNDGRMTLVGIISWGLGCGQKDVPGVYTKVTNYLDWIRDNMRP
- brain infarct size: significantly larger

From patent publication US6903135B2, “Methods and products related to 16-HETE analogs” (Board of Regents, The University of Texas System, priority 1998, dated 2005)
